# What was measured:
# [1] = target: GIRK2 homotetrameric channel (mouse GIRK2A) (mouse)
# [2] = target: GIRK2 homotetrameric channel (mouse GIRK2A) (mouse); remark: listed apart in the source
# [3] = target: GIRK1/2 heterotetrameric channel (GIRK1 with GIRK2) (not stated | mouse) (UniProt P63251)
# [4] = target: GIRK1/2HA heterotetrameric channel (GIRK1 with GIRK2HA) (not stated | mouse) (UniProt P63251)
# [5] = target: GIRK2HA homotetrameric channel (HA-tagged GIRK2) (mouse)
# [6] = target: GIRK1/2 heterotetrameric channel (GIRK1 with GIRK2) (not stated | mouse) (UniProt P63251); remark: listed apart in the source
Substance,"Kd, WTM model fit with fixed µ = 0.3 of single-channel Po against Gβ·YFPGγ surface density [1]","Kd, WTM model fit with fixed µ = 0.3 of whole-cell currents of GIRK2 or GIRK2HA against Gβ·YFPGγ surface density (mean of experiments) [2]","Kd, WTM model fit with fixed µ = 0.44 of whole-cell currents of GIRK2 or GIRK2HA against Gβ·YFPGγ surface density (mean of experiments) [2]","Kd, WTM model fit (µ = 0.3) of whole-cell currents against Gβ·YFPGγ surface density, mean of all experiments [3]","Kd, WTM model fit (µ = 0.3) of whole-cell currents against Gβ·YFPGγ surface density in individual oocytes (Fig. 4b, experiment #4) [4]","Kd, WTM model fit (µ = 0.3) of whole-cell currents against Gβ·YFPGγ surface density in individual oocytes (Fig. 4b, experiment #4) [5]",time constant of the single-exponential decay of channel activity (NPo) after excision of the patch into Gβγ-free bath solution with ATP and Na+ [6]
Gβ·YFPGγ (Gβ1 coexpressed with N-terminally YFP-labeled Gγ2) (from UniProt P62873 1-340; P59768 1-71) (complex),17.3 µM,31 µM,11 µM,5.5 µM,9 µM,45 µM,
Gβγ (Gβ1γ2) coexpressed in Xenopus oocytes (from UniProt P62873 1-340; P59768 1-71) (complex),,,,,,,> 2 min
